# T1: SlGATA29 (Solanum lycopersicum, UniProt UPI0002BCBC7B 34-326)
# T1 sequence: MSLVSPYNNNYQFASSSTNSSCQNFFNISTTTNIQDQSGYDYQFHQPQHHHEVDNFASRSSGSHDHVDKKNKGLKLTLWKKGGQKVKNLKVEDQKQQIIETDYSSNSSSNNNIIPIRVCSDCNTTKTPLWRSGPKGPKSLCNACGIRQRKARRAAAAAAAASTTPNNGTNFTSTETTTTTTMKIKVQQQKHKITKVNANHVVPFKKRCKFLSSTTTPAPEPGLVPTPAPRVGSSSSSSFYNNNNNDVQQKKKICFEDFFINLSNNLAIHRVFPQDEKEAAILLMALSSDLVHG
# B1: probe-60bp (dsDNA)
# DNA 1: GAATATATGAACATATTAAAAGTGACATTATAAGAAATGATAAAATTCAAAATTAAGGTG
# DNA 2: CACCTTAATTTTGAATTTTATCATTTCTTATAATGTCACTTTTAATATGTTCATATATTC
# B2: 30bpSWIB-mu4 (dsDNA)
# DNA 1: TAAGAAATGATAAAATTCAAAATTAAGGTG
# DNA 2: CACCTTAATTTTGAATTTTATCATTTCTTA
# B3: 60bp InDel, Cy5 (dsDNA)
# DNA 1: B1 DNA 1
# DNA 2: B1 DNA 2
# Legend:
# [1] = test system: SlSWIBb-K86A (Solanum lycopersicum); test: MST; details: MST: 50 mM Tris-HCl pH 8.0, 150 mM NaCl, 0.05% Tween-20, 25 C
# [2] = test system: SlSWIBb (Solanum lycopersicum); test: MST; details: MST: 50 mM Tris-HCl pH 8.0, 150 mM NaCl, 0.05% Tween-20, 25 C
# [3] = test system: SlSWIBb-R6A (Solanum lycopersicum); test: MST; details: MST: 50 mM Tris-HCl pH 8.0, 150 mM NaCl, 0.05% Tween-20, 25 C
# [4] = test system: SlSWIBb-L44A (Solanum lycopersicum); test: MST; details: MST: 50 mM Tris-HCl pH 8.0, 150 mM NaCl, 0.05% Tween-20, 25 C
# SlGATA29 = molecular target: T1, SlGATA29; test: EMSA
# SlSWIBa = SlSWIBa (Solanum lycopersicum, UniProt A0A3Q7HR54 1-124); test: EMSA
# SlSWIBa-allmut = SlSWIBa-allmut (Solanum lycopersicum, UniProt A0A3Q7HR54 1-124, R6A;L46A;K88A); test: MST
molecule,measurement,setting,value
"GAATATATGAACATATTAAAAGTGACATTATAAGAAATGATAAAATTCAAAATTAAGGTG (double strand) [60bp InDel, Cy5]",Kd,[1],42 nM
same,Kd,[2],35 nM
same,Kd,[3],40 nM
same,Kd,[4],47 nM
B1,binding result,SlGATA29,binds
B2,binding result,SlSWIBa,no binding
B3,binding result,SlSWIBa-allmut,no binding

# — PMC11303406
